According to publication PMC7026398, “Structural and functional insight into the effect of AFF4 dimerization on activation of HIV-1 proviral transcription” (Cell Discovery, 2020):

B1: AFF1-THD (953-1210), wild type [not stated] / itself (parent)
chain: GKPQVKFDKQQADLHMREAKKMKQKAELMTDRVGKAFKYLEAVLSFIECGIATESESQSSKSAYSVYSETVDLIKFIMSLKSFSDATAPTQEKIFAVLCMRCQSILNMAMFRCKKDIAIKYSRTLNKHFESSSKVAQAPSPCIASTGTPSPLSPMPSPASSVGSQSSAGSVGSSGVAATISTPVTIQNMTSSYVTITSHVLTAFDLWEQAEALTRKNKEFFARLSTNVCTLALNSSLVDLVHYTRQGFQQLQELTKTP
B2: human AFF4-THD (902-1163), wild type [human] / itself (parent)
chain: RRTKLVFDDRNYSADHYLQEAKKLKHNADALSDRFEKAVYYLDAVVSFIECGNALEKNAQESKSPFPMYSETVDLIKYTMKLKNYLAPDATAADKRLTVLCLRCESLLYLRLFKLKKENALKYSKTLTEHLKNSYNNSQAPSPGLGSKAVGMPSPVSPKLSPGNSGNYSSGASSASASGSSVTIPQKIHQMAASYVQVTSNFLYATEIWDQAEQLSKEQKEFFAELDKVMGPLIFNASIMTDLVRYTRQGLHWLRQDAKLIS

Variants of: B1
Experiment: analytical gel filtration
Details: with itself; read off a plot

screen value	Variant
10.5 mL	GKPQVKFDKQQADLHMREAKKMKQKAELMTDRVGKAFKYLEAVLSFIECGIATESESQSSKSAYSVYSETVDLIKFIMSLKSFSDATAPTQEKIFAVLCMRCQSILNMAMARCKKDIAIKYSRTLNKHFESSSKVAQAPSPCIASTGTPSPLSPMPSPASSVGSQSSAGSVGSSGVAATISTPVTIQNMTSSAATITSHALTAFDLWEQAEALTRKNKEFFARLSTNVCTLALNSSLVDLVHYTRQGFQQLQELTKTP [chain 1 F111A Y193A V194A V200A]
9.4 mL	GKPQVKFDKQQADLHMREAKKMKQKAELMTDRVGKAFKYLEAVLSFIECGIATESESQSSKSAYSVYSETVDLIKFIMSLKSFSDATAPTQEKIFAVLCMRCQSILNMAMARCKKDIAIKYSRTLNKHFESSSKVAQAPSPCIASTGTPSPLSPMPSPASSVGSQSSAGSVGSSGVAATISTPVTIQNMTSSYVTITSHVLTAFDLWEQAEALTRKNKEFFARLSTNVCTLALNSSLVDLVHYTRQGFQQLQELTKTP [chain 1 F111A]
9.5 mL	GKPQVKFDKQQADLHMREAKKMKQKAELMTDRVGKAFKYLEAVLSFIECGIATESESQSSKSAYSVYSETVDLIKFIMSLKSFSDATAPTQEKIFAVLCMRCQSILNMAMFRCKKDIAIKYSRTLNKHFESSSKVAQAPSPCIASTGTPSPLSPMPSPASSVGSQSSAGSVGSSGVAATISTPVTIQNMTSSAVTITSHVLTAFDLWEQAEALTRKNKEFFARLSTNVCTLALNSSLVDLVHYTRQGFQQLQELTKTP [chain 1 Y193A]

Variants of: B1
Experiment: sedimentation velocity analytical ultracentrifugation
Details: with itself

screen value	Variant
27.2 kD	GKPQVKFDKQQADLHMREAKKMKQKAELMTDRVGKAFKYLEAVLSFIECGIATESESQSSKSAYSVYSETVDLIKFIMSLKSFSDATAPTQEKIFAVLCMRCQSILNMAMARCKKDIAIKYSRTLNKHFESSSKVAQAPSPCIASTGTPSPLSPMPSPASSVGSQSSAGSVGSSGVAATISTPVTIQNMTSSAATITSHALTAFDLWEQAEALTRKNKEFFARLSTNVCTLALNSSLVDLVHYTRQGFQQLQELTKTP [chain 1 F111A Y193A V194A V200A]

Same assay, conditions: with itself; read off a plot

screen value	Variant
2.2 S	GKPQVKFDKQQADLHMREAKKMKQKAELMTDRVGKAFKYLEAVLSFIECGIATESESQSSKSAYSVYSETVDLIKFIMSLKSFSDATAPTQEKIFAVLCMRCQSILNMAMARCKKDIAIKYSRTLNKHFESSSKVAQAPSPCIASTGTPSPLSPMPSPASSVGSQSSAGSVGSSGVAATISTPVTIQNMTSSAATITSHALTAFDLWEQAEALTRKNKEFFARLSTNVCTLALNSSLVDLVHYTRQGFQQLQELTKTP [chain 1 F111A Y193A V194A V200A]

Variants of: B2
Experiment: analytical gel filtration
Details: with itself; read off a plot

screen value	Variant
10.8 mL	RRTKLVFDDRNYSADHYLQEAKKLKHNADALSDRFEKAVYYLDAVVSFIECGNALEKNAQESKSPFPMYSETVDLIKYTMKLKNYLAPDATAADKRLTVLCLRCESLLYLRLAKLKKENALKYSKTLTEHLKNSYNNSQAPSPGLGSKAVGMPSPVSPKLSPGNSGNYSSGASSASASGSSVTIPQKIHQMAASAVQVTSNFLYATEIWDQAEQLSKEQKEFFAELDKVMGPLIFNASIMTDLVRYTRQGLHWLRQDAKLIS [chain 1 F113A Y195A]
10.6 mL	RRTKLVFDDRNYSADHYLQEAKKLKHNADALSDRFEKAVYYLDAVVSFIECGNALEKNAQESKSPFPMYSETVDLIKYTMKLKNYLAPDATAADKRLTVLCLRCESLLYLRLAKLKKENALKYSKTLTEHLKNSYNNSQAPSPGLGSKAVGMPSPVSPKLSPGNSGNYSSGASSASASGSSVTIPQKIHQMAASYVQVTSNFLYATEIWDQAEQLSKEQKEFFAELDKVMGPLIFNASIMTDLVRYTRQGLHWLRQDAKLIS [chain 1 F113A]
10.9 mL	RRTKLVFDDRNYSADHYLQEAKKLKHNADALSDRFEKAVYYLDAVVSFIECGNALEKNAQESKSPFPMYSETVDLIKYTMKLKNYLAPDATAADKRLTVLCLRCESLLYLRLFKLKKENALKYSKTLTEHLKNSYNNSQAPSPGLGSKAVGMPSPVSPKLSPGNSGNYSSGASSASASGSSVTIPQKIHQMAASAVQVTSNFLYATEIWDQAEQLSKEQKEFFAELDKVMGPLIFNASIMTDLVRYTRQGLHWLRQDAKLIS [chain 1 Y195A]

Variants of: B2
Experiment: sedimentation velocity analytical ultracentrifugation
Details: with itself

screen value	Variant
28.9 kD	RRTKLVFDDRNYSADHYLQEAKKLKHNADALSDRFEKAVYYLDAVVSFIECGNALEKNAQESKSPFPMYSETVDLIKYTMKLKNYLAPDATAADKRLTVLCLRCESLLYLRLAKLKKENALKYSKTLTEHLKNSYNNSQAPSPGLGSKAVGMPSPVSPKLSPGNSGNYSSGASSASASGSSVTIPQKIHQMAASAVQVTSNFLYATEIWDQAEQLSKEQKEFFAELDKVMGPLIFNASIMTDLVRYTRQGLHWLRQDAKLIS [chain 1 F113A Y195A]

Same assay, conditions: with itself; read off a plot

screen value	Variant
2.2 S	RRTKLVFDDRNYSADHYLQEAKKLKHNADALSDRFEKAVYYLDAVVSFIECGNALEKNAQESKSPFPMYSETVDLIKYTMKLKNYLAPDATAADKRLTVLCLRCESLLYLRLAKLKKENALKYSKTLTEHLKNSYNNSQAPSPGLGSKAVGMPSPVSPKLSPGNSGNYSSGASSASASGSSVTIPQKIHQMAASAVQVTSNFLYATEIWDQAEQLSKEQKEFFAELDKVMGPLIFNASIMTDLVRYTRQGLHWLRQDAKLIS [chain 1 F113A Y195A]
